Test results from patent US20060122108A1.

Assays:
BSA [1] = molecular target: BSA (UniProt P02769); test: phage ELISA, control well (BSA blocking solution only); phage 710 ng/well; 100% = SEQ 5 phage at 710 ng/well
BSA [2] = molecular target: BSA (UniProt P02769); test: phage ELISA, control well (BSA blocking solution only); phage 3 ng/well; 100% = SEQ 5 phage at 710 ng/well
BSA [3] = molecular target: BSA (UniProt P02769); test: phage ELISA, control well (BSA blocking solution only); phage 1 ng/well; 100% = SEQ 5 phage at 710 ng/well
BSA [4] = molecular target: BSA (UniProt P02769); test: phage ELISA, control well (BSA blocking solution only); phage 18 ng/well; 100% = SEQ 5 phage at 710 ng/well
BSA [5] = molecular target: BSA (UniProt P02769); test: phage ELISA, control well (BSA blocking solution only); phage 109 ng/well; 100% = SEQ 5 phage at 710 ng/well
BSA [6] = molecular target: BSA (UniProt P02769); test: phage ELISA, control well (BSA blocking solution only); phage 0 ng/well (printed); 100% = SEQ 5 phage at 710 ng/well
BSA [7] = molecular target: BSA (UniProt P02769); test: phage ELISA, control well (BSA blocking solution only); phage 134 ng/well; 100% = SEQ 5 phage at 710 ng/well
BSA [8] = molecular target: BSA (UniProt P02769); test: phage ELISA, control well (BSA blocking solution only); phage 22 ng/well; 100% = SEQ 5 phage at 710 ng/well
BSA [9] = molecular target: BSA (UniProt P02769); test: phage ELISA, control well (BSA blocking solution only); phage 870 ng/well; 100% = SEQ 5 phage at 710 ng/well
BSA [10] = molecular target: BSA (UniProt P02769); test: phage ELISA, control well (BSA blocking solution only); phage 4 ng/well; 100% = SEQ 5 phage at 710 ng/well
BSA [11] = molecular target: BSA (UniProt P02769); test: phage ELISA, control well (BSA blocking solution only); phage 859 ng/well; 100% = SEQ 5 phage at 710 ng/well
BSA [12] = molecular target: BSA (UniProt P02769); test: phage ELISA, control well (BSA blocking solution only); phage 132 ng/well; 100% = SEQ 5 phage at 710 ng/well
BSA [13] = molecular target: BSA (UniProt P02769); test: phage ELISA, control well (BSA blocking solution only); phage 20 ng/well; 100% = SEQ 5 phage at 710 ng/well
BSA [14] = molecular target: BSA (UniProt P02769); test: phage ELISA, control well (BSA blocking solution only); phage 122 ng/well; 100% = SEQ 5 phage at 710 ng/well
BSA [15] = molecular target: BSA (UniProt P02769); test: phage ELISA, control well (BSA blocking solution only); phage 796 ng/well; 100% = SEQ 5 phage at 710 ng/well

BSA, sequence (P02769 25-607 limits assumed): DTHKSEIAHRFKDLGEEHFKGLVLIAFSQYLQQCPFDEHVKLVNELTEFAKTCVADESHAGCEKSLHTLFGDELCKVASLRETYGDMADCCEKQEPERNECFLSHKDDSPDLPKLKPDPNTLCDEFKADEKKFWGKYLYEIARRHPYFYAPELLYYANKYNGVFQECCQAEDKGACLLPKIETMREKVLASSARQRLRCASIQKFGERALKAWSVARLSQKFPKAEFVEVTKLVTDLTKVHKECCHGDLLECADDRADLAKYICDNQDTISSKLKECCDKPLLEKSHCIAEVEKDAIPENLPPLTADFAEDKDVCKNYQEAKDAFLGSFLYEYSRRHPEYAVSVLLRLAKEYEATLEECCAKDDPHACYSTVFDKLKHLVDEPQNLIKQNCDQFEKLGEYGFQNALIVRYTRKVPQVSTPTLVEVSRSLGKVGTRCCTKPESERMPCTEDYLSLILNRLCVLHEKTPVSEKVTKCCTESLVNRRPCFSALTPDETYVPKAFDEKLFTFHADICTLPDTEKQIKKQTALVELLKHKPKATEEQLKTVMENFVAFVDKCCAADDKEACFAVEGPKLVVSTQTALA

Row | Binder | percentage of binding (BSA [1]) [%] | percentage of binding (BSA [2]) [%] | percentage of binding (BSA [3]) [%] | percentage of binding (BSA [4]) [%] | percentage of binding (BSA [5]) [%] | percentage of binding (BSA [6]) [%] | percentage of binding (BSA [7]) [%] | percentage of binding (BSA [8]) [%] | percentage of binding (BSA [9]) [%] | percentage of binding (BSA [10]) [%] | percentage of binding (BSA [11]) [%] | percentage of binding (BSA [12]) [%] | percentage of binding (BSA [13]) [%] | percentage of binding (BSA [14]) [%] | percentage of binding (BSA [15]) [%]
1 | SWLQMPWALVRT (peptide, not shown: large carriers) [phage presenting SEQ ID NO: 5 (…)] | 5 | 1 | 0 | 1 | 3 | 0 | – | – | – | – | – | – | – | – | –
2 | TRLAPLVFPLDY (peptide, not shown: large carriers) [phage presenting SEQ ID NO: 4 (…)] | – | – | 0 | – | – | 0 | 4 | 1 | 10 | 0 | – | – | – | – | –
3 | QIEPWFTPEDFP (peptide, not shown: large carriers) [phage presenting SEQ ID NO: 3 (…)] | – | – | 0 | – | – | 0 | – | 2 | – | 1 | 10 | 5 | – | – | –
4 | LWQPPLIPGIDF (peptide, not shown: large carriers) [phage presenting SEQ ID NO: 2 (…)] | – | 2 | 1 | – | – | 0 | – | – | – | – | – | – | 4 | 9 | 12
